From patent US20230338424A1 (LENTIGEN TECHNOLOGY, published 2023)

What was measured:
[1] = target: T1, recombinant human CD123 (human, UniProt P26951 19-305, limits assumed); test: ELISA, soluble scFv on coated recombinant human CD123
T1 construct: also called coated CD123
T1 sequence (looked up): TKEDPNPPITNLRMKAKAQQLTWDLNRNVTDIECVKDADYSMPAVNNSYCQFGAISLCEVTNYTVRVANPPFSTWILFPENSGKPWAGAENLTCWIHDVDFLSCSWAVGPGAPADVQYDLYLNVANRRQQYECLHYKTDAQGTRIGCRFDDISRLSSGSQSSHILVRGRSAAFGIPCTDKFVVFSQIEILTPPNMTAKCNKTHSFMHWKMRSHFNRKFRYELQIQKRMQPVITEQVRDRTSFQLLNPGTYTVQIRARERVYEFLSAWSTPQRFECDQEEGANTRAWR
Description: After each round of incubation, the wells were washed 10 times for the first round, 20 times for the second round and 30 times for the third round with phosphate-buffered saline containing 0.05% Tween 20 (PBST) to remove nonspecifically bound phage. Antigen binding phage were eluted with 100 µl 10 µg/ml Trypsin diluted in PBS and mixed with TG1 competent cells for 1 hour at 37° C., and the phage was amplified from the infected cells and used in the next round of biopanning. After the third round of biopanning, 376 clones were randomly picked from the infected TG1 cells and each inoculated into 150 µl 2YT medium containing 100 µg/ml ampicillin and 200 mM glucose in 96-well plates by using the automated colony picking system (Molecular Devices, QPix 460) and were incubated at 37° C. overnight in a shaker at 300 rpm. Next day 10 µl of the bacterial cultures were used to inoculate 150 µl 2YT medium containing 100 µg/ml ampicillin and 50 µM isopropyl-β-d-thiogalactopyranoside in 96-well plates and the plates were further incubated at 30° C. overnight in a shaker at 300 rpm. […] The supernatants were incubated for 1 h at room temperature with recombinant human CD123 coated at 30 ng per well in 384-well plates and washed three times with PBST, (after overnight incubation at 4° C. it was blocked with 2% BSA in PBS containing 0.05% Tween 20 and washed three times with PBS containing 0.05% Tween 20.) After incubation the 3,3,′5,5′-tetramethylbenzidine (TMB) substrate was added, and solution absorbance at 450 nm (A450) measured. Clones that bound to CD123 with a signal to noise ratio of >5 were selected for further characterization.

[2] = target: T2, CD123 on cells (MOLM-13, MOLM14, KG-1a, RS4;11-CD123) (human, UniProt P26951 19-378); test: flow cytometry, soluble scFv on CD123-positive MOLM-13 cells, anti-His-APC
T2 construct: whole, on cells; also called CD123 antigen; CD123/IL-3 receptor alpha
Description: Identified binders from ELISA were tested on CD123-positive the cell line MOLM-13. The CD123-negative cell line Jeko-1 CD20KO eGFP served as negative control. For positive control staining REAL270 (alpha CD123) and REAL116 (alpha CD123) antibodies were used, respectively. Soluble scFvs were expressed as described above. The bacterial pellets were disrupted by incubation with 0.3 mL TE buffer (10 mM Tris-HCl containing 1 mM EDTA, pH 8.0 at 37° C.)/well at 37° C., 250 rpm for 18 hours. Cultures were centrifuged at 4000xg, RT for 20 minutes and the supernatant was transferred to a fresh microtiter plate.
For cell staining cell number and viability were determined at MACSQuantX. A cell suspension containing needed cell number were centrifuged at 300xg, 4° C. for 10 minutes and supernatant was discarded. Cells are resuspended by addition of PEB buffer (1xPBS + 2 mM EDTA, 0.5% BSA pH 7.4 at RT) to a concentration of 1E+06 cells/mL. One hundred thousand cells per cell line were added to each well of 96-well V-bottom plate and the plate were centrifuged at 1300xg, 4° C. for 2 minutes. The supernatant was discarded, cells were resuspended in 100 µL of supernatant from periplasmatic preparation and cells were incubated for 10 minutes on ice. Cells were washed by addition of 100 µL PEB followed by centrifugation (1300 x g, 4° C. for 2 minutes), twice. Fifty microliter of secondary (Anti-His-APC conjugated antibody) or REAL antibody (diluted 1:50 in PEB buffer) per well were added and the plate is incubated for 10 minutes in the dark at 4° C. Cells were washed by addition of 100 µL PEB followed by centrifugation (1300xg, 4° C. for 2 minutes), twice. Propidium iodide was diluted 1:100 in Fixing solution (1xPBS + 2 mM EDTA + 1% PFA + 0.3% MeOH + 3% NaAzide) and washed cells were resuspended in 50 µL of the mixture. Signals are measured at MACSQuantX. Signals were analyzed using FlowLogic software. Statistical analysis was performed with VORTEX software.

[3] = target: T3, recombinant human CD123-Fc (human, UniProt P26951 19-305, limits assumed); test: flow cytometry, CAR T cells stained with recombinant IL3R-alpha Fc-tagged, anti-Fc AF647
T3 construct: Treated as one molecule; also called CD123-Fc peptide (Novoprotein); recombinant IL3R-alpha Fc-tagged; not shown: Fc tag
T3 sequence (looked up): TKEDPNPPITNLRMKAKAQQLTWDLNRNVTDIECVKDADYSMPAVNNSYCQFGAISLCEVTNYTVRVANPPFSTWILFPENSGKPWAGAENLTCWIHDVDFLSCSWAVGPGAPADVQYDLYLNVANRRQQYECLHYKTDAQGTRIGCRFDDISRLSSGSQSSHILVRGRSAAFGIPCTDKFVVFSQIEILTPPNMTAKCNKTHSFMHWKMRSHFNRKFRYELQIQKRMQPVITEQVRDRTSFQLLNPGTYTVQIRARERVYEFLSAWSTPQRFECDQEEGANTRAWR
Description: Half million CAR T cells were washed two times in cold AutoMACS buffer supplemented with 0.5% bovine serum albumin (Miltenyi Biotec, Bergisch Gladbach, Germany) and stained with 2.5 ug/ml CD123-Fc peptide (Novoprotein, Summit, NJ), followed by anti Fc-AF647 conjugate (Jackson ImmunoResearch, West Grove, PA). The 7-Aminoactinomycin D staining (7-AAD, BD Biosciences, San Jose, CA) was added to exclude dead cells. Non-transduced cells (UTD) were used as a negative control. Cells were washed twice with AutoMACS buffer supplemented with 0.5% bovine serum albumin, resuspended in 200 ul staining buffer and acquired by flow cytometry. Flow cytometric analysis was performed on a MACSQuant® 10 Analyzer (Miltenyi Biotec), and data plots were generated using FlowJo software (Ashland, OR).
Lentiviral vectors encoding the CD123 CAR constructs were used for CAR transduction into human primary T cells at multiplicity of infection (MOI) of 40. CAR surface expression of transduced T cells by flow cytometry using recombinant IL3R-alpha Fc-tagged, followed by staining with anti-Fc Alexa Flour 647.

T2 sequence (P26951 19-378): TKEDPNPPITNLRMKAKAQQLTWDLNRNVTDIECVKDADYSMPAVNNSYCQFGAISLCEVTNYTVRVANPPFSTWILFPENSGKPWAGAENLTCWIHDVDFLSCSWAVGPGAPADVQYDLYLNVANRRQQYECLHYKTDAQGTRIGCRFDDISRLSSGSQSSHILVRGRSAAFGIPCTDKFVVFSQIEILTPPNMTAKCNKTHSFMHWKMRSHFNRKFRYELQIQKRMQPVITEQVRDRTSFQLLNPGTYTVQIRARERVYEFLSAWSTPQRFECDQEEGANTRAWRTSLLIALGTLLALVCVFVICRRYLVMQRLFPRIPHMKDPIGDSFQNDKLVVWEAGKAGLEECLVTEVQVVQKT

Row | binding result [1] | binding result [2] | binding result [3] | Binder
1 | binds | binds | – | scFv MB44-H01 (scFv, Soluble scFv carried c-myc and His tags; also called CD123 (MB44-H01)) scFv: QVQLVQSGAEVKKPGSSVKVSCKASGGTFSSYAISWVRQAPGQGLEWMGGIIPIFGTANYAQRFQGRVTITADESTSTAYMELSSLRSEDTAVYYCARGLGTSYYYYYMDVWGKGTTVTVSSGGGGSGGGGSGGGGSQSVLTQPPSASGSPGQSVTISCTGTSSDVGGYNYVSWYQQHPGKAPKLMIYEVSNRPSGVSNRFSGSKSGNTASLTISGLQAEDEADYYCSSYTSSSTPVVFGGGTKLTVL
2 | binds | binds | – | scFv MB40-F08 (scFv, Soluble scFv carried c-myc and His tags; also called CD123 (MB40-F08)) scFv: QVQLVQSGAEVKKPGSSVKVSCKASGGTFSSYAISWVRQAPGQGLEWMGGIIPIFGTANYAQKFQGRVTITADESTSTAYMELSSLRSEDTAVYYCARGSGELLYASYYYYYMDVWGKGTTVTVSSGGGGSGGGGSGGGGSQSALTQPASVSGSPGQSITISCTGTSSDVGGYNYVSWYQQHPGKAPKLMIYEVSNRPSGVSNRFSGSKSGNTASLTISGLQAEDEADYYCSSYTSSSPLVFGTGTKVTVL
3 | – | – | binds | CAR D0127 CD123 MB35-E02 CD8 BBz (other, Chimeric antigen receptor on transduced human primary T cells; also called EF-1a-CD123 MB35-E02 CD8 BBz) QVQLVQSGAEVKKPGSSVKVSCKASGGTFSSYAISWVRQAPGQGLEWMGGIIPIFGTANYAQKFQGRVTITADESTSTAYMELSSLRSEDTAVYYCARHGGMATMLPYGAFDIWGQGTMVTVSSGGGGSGGGGSGGGGSDIRLTQSPSSLSASVGDRVTITCRASQGISSYLNWYQQKPGKAPKLLIYAASRLQSGVPSRFSGSGSGTDFTLTISSLQPEDFATYYCQQSYSTSLTFGGGTKVEIKAAATTTPAPRPPTPAPTIASQPLSLRPEACRPAAGGAVHTRGLDFACDIYIWAPLAGTCGVLLLSLVITLYCKRGRKKLLYIFKQPFMRPVQTTQEEDGCSCRFPEEEEGGCELRVKFSRSADAPAYQQGQNQLYNELNLGRREEYDVLDKRRGRDPEMGGKPRRKNPQEGLYNELQKDKMAEAYSEIGMKGERRRGKGHDGLYQGLSTATKDTYDALHMQALPPR
4 | binds | binds | – | scFv MB42-E12 (scFv, Soluble scFv carried c-myc and His tags; also called CD123 (MB42-E12)) scFv: QVQLVQSGAEVKKPGASVKVSCKASGYTFTSYGISWVRQAPGQGLEWMGWISAYNGNTNYAQKLQGRVTMTTDTSTSTAYMELRSLRSDDTAVYYCARGAYYDFWSSYSWFDPWGQGTLVTVSSGGGGSGGGGSGGGGSSYVLTQPPSVSVAPGKTARITCGGNNIGSKSVHWYQQKPGQAPVLVVYDDSDRPSGIPERFSGSNSGNTATLTISRVEAGDEADYYCQVWDSSSDHVVFGGGTKLTVL
5 | binds | binds | – | scFv MB35-E02 (scFv, Soluble scFv carried c-myc and His tags; also called CD123 (MB35-E02)) scFv: QVQLVQSGAEVKKPGSSVKVSCKASGGTFSSYAISWVRQAPGQGLEWMGGIIPIFGTANYAQKFQGRVTITADESTSTAYMELSSLRSEDTAVYYCARHGGMATMLPYGAFDIWGQGTMVTVSSGGGGSGGGGSGGGGSDIRLTQSPSSLSASVGDRVTITCRASQGISSYLNWYQQKPGKAPKLLIYAASRLQSGVPSRFSGSGSGTDFTLTISSLQPEDFATYYCQQSYSTSLTFGGGTKVEIK
6 | binds | binds | – | scFv MB36-A05 (scFv, Soluble scFv carried c-myc and His tags; also called CD123 (MB36-A05)) scFv: QVQLVQSGAEVKKPGSSVKVSCKASGGTFSSYAISWVRQAPGQGLEWMGGIIPIFGTANYAQKFQGRVTITADKSTSTAYMELSSLRSEDTAVYYCARGGRNSYYYYYMDVWGKGTTVTVSSGGGGSGGGGSGGGGSQSALTQPASVSGSPGQSITISCTGTSSDVGGYNYVSWYQQHPGKAPKLMIYEVSNRPSGVSNRFSGSKSGNTASLTISGLQAEDEADYYCSSYTSSSPVVFGGGTKLTVL

More lines, now with the values behind:

Row | Binder | binding result [1] | binding result [2] | binding result [3]
7 | scFv MB42-D03 (scFv, Soluble scFv carried c-myc and His tags; also called CD123 (MB42-D03)) scFv: QVQLVQSGAEVKKPGASVKVSCKASGYTFTSYGISWVRQAPGQGLEWMGWISAYNGNTNYAQKLQGRVTMTTDTSTSTAYMELRSLRSDDTAVYYCARGAYYDFWSSYSWFDPWGQGTLVTVSSGGGGSGGGGSGGGGSSYVLTQPPSVSVAPGKTARITCGGNSIGSKSVQWYQQKPGQAPVLVIYDDSDRPSGIPERFSGSNSGNTATLTISRVEAGDEADYYCQVWDSSSDVVFGGGTKLTVL | binds | binds | –
8 | scFv MB31-A01 (scFv, Soluble scFv carried c-myc and His tags (detection antibodies); also called CD123 (MB31-A01)) scFv: QIQLVQSGAEVKKPGSSVKVSCKASGGTFSSYAISWVRQAPGQGLEWMGGIIPIFGTANYAQKFQGRVTITADESTSTAYMELSSLRSEDTAVYYCARGSGELLYASYYYYYMDVWGKGTTVTVSSGGGGSGGGGSGGGGSQSALTQPASVSGSPGQSITISCTGTSSDVGGYNYVSWYQQHPGKAPELMIYDVSNRPSGVSNRFSGSKSGNTASLTISGLQAEDEADYYCSSYTSSSTPVVFGGGTKLTVL | binds | binds | –
9 | scFv MB40-H08 (scFv, Soluble scFv carried c-myc and His tags; also called CD123 (MB40-H08)) scFv: QVQLVQSGAEVKKPGSSVKVSCKASGGTFSSYAISWVRQAPGQGLEWMGGIIPIFGTANYAQKFQGRVTITADESTSTAYMELSSLRSEDTAVYYCARNEWYSYYYYYMGVWGKGTTVTVSSGGGGSGGGGSGGGGSQSALTQPASVSGSPGQSITISCTGTSSDVGGYNYVSWYQQHPGKAPKLMIYEVSNRPSGVSNRFSGSKSGNTASLTISGLQAEDEADYYCSSYTSSSTLVVFGGGTKLTVL | binds | binds | –
10 | scFv MB42-E02 (scFv, Soluble scFv carried c-myc and His tags; also called CD123 (MB42-E02)) scFv: QVQLVQSGAEVKKPGASVKVSCKASGYTFTSYGISWVRQAPGQGLEWMGWISAYNGNTNYAQKLQGRVTMTTDTSTSTAYMELRSLRSDDTAVYYCARGAYYDFWSGYSWFDPWGQGTLVTVSSGGGGSGGGGSGGGGSQSVLTQPPSVSVAPGQTARIPCGGNNIGSKGVHWYQQKSGQAPVMVVYDDSDRPSGIPERFSGSNSGNTATLTISRVEAGDEADYYCQVWDSSGDLVLFGGGTKLTVL | binds | binds | –
